Read-outs that look alike come from different tables or passages of the source.
How the values were obtained:
4H918-bH = target: T1, 4H918-bH; assay: two-hybrid library CCNG1;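 also: natural log of median RNA to DNA barcode read ratio; higher means stronger binding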
T1 chain: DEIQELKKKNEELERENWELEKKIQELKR

4H953-bH = target: T2, 4H953-bH; assay: two-hybrid library CCNG1;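 also: natural log of median RNA to DNA barcode read ratio; higher means stronger binding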
T2 chain: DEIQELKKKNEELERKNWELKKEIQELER

4H968-bH = target: T3, 4H968-bH; assay: two-hybrid library CCNG1;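 also: natural log of median RNA to DNA barcode read ratio; higher means stronger binding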
T3 chain: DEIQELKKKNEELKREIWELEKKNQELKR

4H932-bA = target: T4, 4H932-bA; assay: two-hybrid library CCNG1;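 also: natural log of median RNA to DNA barcode read ratio; higher means stronger binding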
T4 chain: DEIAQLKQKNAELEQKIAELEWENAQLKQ

4H967-bH = target: T5, 4H967-bH; assay: two-hybrid library CCNG1;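 also: natural log of median RNA to DNA barcode read ratio; higher means stronger binding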
T5 chain: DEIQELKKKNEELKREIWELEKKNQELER

APC9096-AA = target: T6, APC9096-AA; assay: two-hybrid library CCmax;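 also: natural log of median RNA to DNA barcode read ratio; higher means stronger binding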
T6 chain: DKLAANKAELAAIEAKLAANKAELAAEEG

APC9319-AA = target: T7, APC9319-AA; assay: two-hybrid library CCmax; settings: mean of both orientations
T7 chain: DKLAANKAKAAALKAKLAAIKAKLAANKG

4H678-AA = target: T8, 4H678-AA; assay: two-hybrid library CCmax; settings: mean of both orientations
T8 chain: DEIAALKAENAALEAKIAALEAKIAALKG

4H605-AA = target: T9, 4H605-AA; assay: two-hybrid library CCmax; settings: mean of both orientations
T9 chain: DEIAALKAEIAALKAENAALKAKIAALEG

4H906-AA = target: T10, 4H906-AA; assay: two-hybrid library CCmax; settings: mean of both orientations
T10 chain: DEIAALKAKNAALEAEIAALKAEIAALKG

4H3627-AA = target: T11, 4H3627-AA; assay: two-hybrid library CCmax; settings: mean of both orientations
T11 chain: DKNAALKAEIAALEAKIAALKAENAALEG

4H2754-AA = target: T12, 4H2754-AA; assay: two-hybrid library CCmax
T12 chain: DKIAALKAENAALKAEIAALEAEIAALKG

4H566-AA = target: T13, 4H566-AA; assay: two-hybrid library CCmax; settings: mean of both orientations
T13 chain: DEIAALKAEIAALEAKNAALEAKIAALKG

4H2949-AA = target: T14, 4H2949-AA; assay: two-hybrid library CCmax; settings: mean of both orientations
T14 chain: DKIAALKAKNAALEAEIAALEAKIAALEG

4H993-AA = target: T15, 4H993-AA; assay: two-hybrid library CCmax; settings: mean of both orientations
T15 chain: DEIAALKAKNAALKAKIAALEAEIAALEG

4H3921-AA = target: T16, 4H3921-AA; assay: two-hybrid library CCmax; settings: mean of both orientations
T16 chain: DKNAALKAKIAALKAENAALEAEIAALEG

4H794-AA = target: T17, 4H794-AA; assay: two-hybrid library CCmax; settings: mean of both orientations
T17 chain: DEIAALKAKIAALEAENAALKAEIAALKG

4H3112-AA = target: T18, 4H3112-AA; assay: two-hybrid library CCmax; settings: mean of both orientations
T18 chain: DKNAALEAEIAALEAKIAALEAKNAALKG

4H342-AA = target: T19, 4H342-AA; assay: two-hybrid library CCmax; settings: mean of both orientations
T19 chain: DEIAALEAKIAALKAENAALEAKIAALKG

4H2883-AA = target: T20, 4H2883-AA; assay: two-hybrid library CCmax
T20 chain: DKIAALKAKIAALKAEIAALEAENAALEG

4H454-AA = target: T21, 4H454-AA; assay: two-hybrid library CCmax; settings: mean of both orientations
T21 chain: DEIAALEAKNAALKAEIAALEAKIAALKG

4H3343-AA = target: T22, 4H3343-AA; assay: two-hybrid library CCmax; settings: mean of both orientations
T22 chain: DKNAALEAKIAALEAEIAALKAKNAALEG

4H3655-AA = target: T23, 4H3655-AA; assay: two-hybrid library CCmax; settings: mean of both orientations
T23 chain: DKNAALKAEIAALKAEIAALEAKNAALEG

4H2837-AA = target: T24, 4H2837-AA; assay: two-hybrid library CCmax
T24 chain: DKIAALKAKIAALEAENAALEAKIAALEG

4H429-AA = target: T25, 4H429-AA; assay: two-hybrid library CCmax; settings: mean of both orientations
T25 chain: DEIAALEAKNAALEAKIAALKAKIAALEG

4H2944-AA = target: T26, 4H2944-AA; assay: two-hybrid library CCmax; settings: mean of both orientations
T26 chain: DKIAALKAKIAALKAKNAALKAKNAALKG

4H3427-AA = target: T27, 4H3427-AA; assay: two-hybrid library CCmax; settings: mean of both orientations
T27 chain: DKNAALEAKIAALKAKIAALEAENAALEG

4H317-AA = target: T28, 4H317-AA; assay: two-hybrid library CCmax; settings: mean of both orientations
T28 chain: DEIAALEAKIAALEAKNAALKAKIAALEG

4H717-AA = target: T29, 4H717-AA; assay: two-hybrid library CCmax; settings: mean of both orientations
T29 chain: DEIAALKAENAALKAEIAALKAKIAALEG

4H48-AA = target: T30, 4H48-AA; assay: two-hybrid library CCmax; settings: mean of both orientations
T30 chain: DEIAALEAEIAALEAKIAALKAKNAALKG

4H881-AA = target: T31, 4H881-AA; assay: two-hybrid library CCmax; settings: mean of both orientations
T31 chain: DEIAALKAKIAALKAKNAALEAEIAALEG

4H780-AA = target: T32, 4H780-AA; assay: two-hybrid library CCmax; settings: mean of both orientations
T32 chain: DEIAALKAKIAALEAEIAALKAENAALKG

4H3844-AA = target: T33, 4H3844-AA; assay: two-hybrid library CCmax; settings: mean of both orientations
T33 chain: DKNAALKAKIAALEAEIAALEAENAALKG

4H3606-AA = target: T34, 4H3606-AA; assay: two-hybrid library CCmax; settings: mean of both orientations
T34 chain: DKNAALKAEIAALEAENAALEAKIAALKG

4H335-AA = target: T35, 4H335-AA; assay: two-hybrid library CCmax; settings: mean of both orientations
T35 chain: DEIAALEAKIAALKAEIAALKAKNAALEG

4H87-AA = target: T36, 4H87-AA; assay: two-hybrid library CCmax
T36 chain: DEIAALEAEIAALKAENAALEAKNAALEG

With DEIQELKKKNEELERENWELEKKIQELKR [4H918-bH] the interaction score (4H918-bH) was 1.26, the interaction score (4H953-bH) was -0.806 and the interaction score (4H968-bH) was -0.174. It also gave an interaction score (4H932-bA) of -1.28 and an interaction score (4H967-bH) of -0.25.

In the case of DKLAANKAELAAIEAKLAANKAELAAEEG [APC9096-AA], the interaction score (APC9096-AA) is reported as -2.06 and the interaction score (APC9319-AA) is reported as -1.81.

In the case of DKIAALKAENAALKAEIAALEAEIAALKG [4H2754-AA], the interaction score (4H678-AA) is reported as 1.82, the interaction score (4H605-AA) is reported as -1.51 and the interaction score (4H906-AA) is reported as -0.0753. For the same binder, the interaction score (4H3627-AA) was -1.36, the interaction score (4H2754-AA) was 2.15 and the interaction score (4H566-AA) was -1.09. For the same binder, the interaction score (4H2949-AA) was -1.05, the interaction score (4H993-AA) was 1.43 and the interaction score (4H3921-AA) was -0.732. For the same binder, the interaction score (4H794-AA) was -1.89, the interaction score (4H3112-AA) was -1.52 and the interaction score (4H342-AA) was 0.684. For the same binder, the interaction score (4H2883-AA; mean of both orientations) was -0.999, the interaction score (4H454-AA) was 2.24 and the interaction score (4H3343-AA) was -1.26. The interaction score (4H3655-AA) was -1.51, the interaction score (4H2837-AA; mean of both orientations) was -0.727 and the interaction score (4H429-AA) was 0.608. It also gave an interaction score (4H2944-AA) of -1.87, an interaction score (4H3427-AA) of -1.7 and an interaction score (4H317-AA) of -1.23. The interaction score (4H717-AA) was 0.757, the interaction score (4H48-AA) was -1.2 and the interaction score (4H881-AA) was 1.13. For the same binder, the interaction score (4H780-AA) was -1.74, the interaction score (4H3844-AA) was -1.53 and the interaction score (4H3606-AA) was 0.688. The interaction score (4H335-AA) was -0.745.

Work on DKIAALKAKIAALEAENAALEAKIAALEG [4H2837-AA] yielded an interaction score (4H678-AA) of -1.18, an interaction score (4H605-AA) of 0.402 and an interaction score (4H906-AA) of -0.599. It also gave an interaction score (4H3627-AA) of -1.3, an interaction score (4H566-AA) of 1.66 and an interaction score (4H2949-AA) of -0.836. For the same binder, the interaction score (4H993-AA) was 1.44, the interaction score (4H3921-AA) was -1.49 and the interaction score (4H794-AA) was 0.0291. The interaction score (4H3112-AA) was 1.23, the interaction score (4H342-AA) was 2.11 and the interaction score (4H2883-AA) was -0.938. It also gave an interaction score (4H454-AA) of -0.102, an interaction score (4H3343-AA) of -1.14 and an interaction score (4H3655-AA) of -0.923. The interaction score (4H2837-AA) was 1.42, the interaction score (4H429-AA) was 0.476 and the interaction score (4H2944-AA) was 0.691. The interaction score (4H3427-AA) was -2.38, the interaction score (4H317-AA) was 1.61 and the interaction score (4H717-AA) was -0.861. The interaction score (4H48-AA) was 0.24, the interaction score (4H881-AA) was 1.65 and the interaction score (4H780-AA) was -1.81. For the same binder, the interaction score (4H3844-AA) was -1.21, the interaction score (4H3606-AA) was -1.14 and the interaction score (4H335-AA) was -0.534.

DEIAALEAEIAALKAENAALEAKNAALEG [4H87-AA] showed an interaction score (4H87-AA) of -0.571.

Source: paper PMC10397247
